# Test results reported in patent US20220380454A1 (University of California, published 2022).
# B1: human Ryk-Flag (receptor)
# chain: PPPLLLLLALLPLLPAPGAAAAPAPRPPELQSASAGPSVSLYLSEDEVRRLIGLDAELYYVRNDLISHYALSFSLLVPSETNFLHFTWHAKSKVEYKLGFQVDNVLAMDMPQVNISVQGEVPRTLSVFRVELSCTGKVDSEVMILMQLNLTVNSSKNFTVLNFKRRKMCYKKLEEVKTSALDKNTSRTIYDPVHAAPTTSTRVFYISVGVCCAVIFLVAIILAVLHLHSMKRIELDDSISASSSSQGLSQPSTQTTQYLRADTPNNATPITSSLGYPTLRIEKNDLRSVTLLEAKGKVKDIAISRERITLKDVLQEGTFGRIFHGILIDEKDPNKEKQAFVKTVKDQASEIQVTMMLTESCKLRGLHHRNLLPITHVCIEEGEKPMVILPYMNWGNLKLFLRQCKLVEANNPQAISQQDLVHMAIQIACGMSYLARREVIHKDLAARNCVIDDTLQVKITDNALSRDLFPMDYHCLGDNENRPVRWMALESLVNNEFSSASDVWAFGVTLWELMTLGQTPYVDIDPFEMAAYLKDGYRIAQPINCPDELFAVMACCWALDPEERPKFQQLVQCLTEFHAALGAYV
# notes: not shown: Flag tag
# B2: Frizzled3-HA (receptor, not shown: small tags and cut ends)
# chain: HSLFSCEPITLRMCQDLPYNTTFMPNLLNHYDQQTAALAMEPFHPMVNLDCSRDFRPFLCALYAPICMEYGRVTLPCRRLCQRAYSECSKLMEMFGVPWPEDMECSRFPDCDEPYPRLVDLNLVGDPTEGAPVAVQRDYGFWCPRELKIDPDLGYSFLHVRDCSPPCPNMYFRREELSFARYFIGLISIICLSATLFTFLTFLIDVTRFRYPERPIIFYAVCYMMVSLIFFIGFLLEDRVACNASSPAQYKASTVTQGSHNKACTMLFMVLYFFTMAGSVWWVILTITWFLAAVPKWGSEAIEKKALLFHASAWGIPGTLTIILLAMNKIEGDNISGVCFVGLYDVDALRYFVLAPLCLYVVVGVSLLLAGIISLNRVRIEIPLEKENQDKLVKFMIRIGVFSILYLVPLLVVIGCYFYEQAYRGIWETTWIQERCREYHIPCPYQVTQMSRPDLILFLMKYLMALIVGIPSIFWVGSKKTCFEWASFFHGRRKKEIVNESRQVLQEPDFAQSLLRDPNTPIIRKSRGTSTQGTSTHASSTQLAMVDDQRSKAGSVHSKVSSYHGSLHRSRDGRYTPCSYRGMEERLPHGSMSRLTDHSRHSSSHRLNEQSRHSSIRDLSNNPMTHITHGTSMNRVIEEDGTSA
# notes: Expressed in transfected HEK293T cells; also called Fzd3-HA; HA-tagged Frizzled3
# B3: Vangl2-Flag (other, not shown: small tags and cut ends)
# chain: MDTESQYSGYSYKSGHSRSSRKHRDRRDRHRSKSRDGSRGDKSVTIQAPGEPLLDNESTRGDERDDNWGETTTVVTGTSEHSISHDDLTRIAKDMEDSVPLDCSRHLGVAAGAILALLSFLTPLAFLLLPPLLWREELEPCGTACEGLFISVAFKLLILLLGSWALFFRRPKASLPRVFVLRALLMVLVFLLVISYWLFYGVRILDARERSYQGVVQFAVSLVDALLFVHYLAVVLLELRQLQPQFTLKVVRSTDGASRFYNVGHLSIQRVAVWILEKYYHDFPVYNPALLNLPKSVLAKKVSGFKVYSLGEENSTNNSTGQSRAVIAAAARRRDNSHNEYYYEEAEHERRVRKRRARLVVAVEEAFTHIKRLQEEEQKNPREVMDPREAAQAIFASMARAMQKYLRTTKQQPYHTMESILQHLEFCITHDMTPKAFLERYLAAGPTIQYHKERWLAKQWTLVSEEPVTNGLKDGIVFLLKRQDFSLVVSTKKVPFFKLSEEFVDPKSHKFVMRLQSETSV
# B4: mouse Ryk-HA (receptor, UniProt Q01887 35-594, looked up)
# chain: RSPALAAAPAGPSVSLYLSEDEVRRLLGLDAELYYVRNDLISHYALSFNLLVPSETNFLHFTWHAKSKVEYKLGFQVDNFVAMGMPQVNISAQGEVPRTLSVFRVELSCTGKVDSEVMILMQLNLTVNSSKNFTVLNFKRRKMCYKKLEEVKTSALDKNTSRTIYDPVHAAPTTSTRVFYISVGVCCAVIFLVAIILAVLHLHSMKRIELDDSISASSSSQGLSQPSTQTTQYLRADTPNNATPITSSSGYPTLRIEKNDLRSVTLLEAKAKVKDIAISRERITLKDVLQEGTFGRIFHGILVDEKDPNKEKQTFVKTVKDQASEVQVTMMLTESCKLRGLHHRNLLPITHVCIEEGEKPMVVLPYMNWGNLKLFLRQCKLVEANNPQAISQQDLVHMAIQIACGMSYLARREVIHRDLAARNCVIDDTLQVKITDNALSRDLFPMDYHCLGDNENRPVRWMALESLVNNEFSSASDVWAFGVTLWELMTLGQTPYVDIDPFEMAAYLKDGYRIAQPINCPDELFAVMACCWALDPEERPKFQQLVQCLTEFHAALGAYV
# notes: whole, on cells; Expressed in HEK293T cells; not shown: HA tag
# Key:
# [1] = target: T1, oligomeric Aβ42 (biotin-Aβ42 oligomers) (human, biotin (human biotin-beta-Amyloid (1-42), AnaSpec); position not stated); experiment: biotin-Aβ42 oligomers on transfected HEK293T cells, streptavidin staining
# T1 construct: Mixture of oligomers prepared from human Aβ42 (24-26 h at 4 °C, supernatant); The number of copies per oligomer is therefore not fixed; also called Aβ oligomers; oligomerized Aβ
# [2] = target: T1, oligomeric Aβ42 (biotin-Aβ42 oligomers); experiment: biotin-Aβ42 oligomers on transfected HEK293T cells, 488-conjugated streptavidin staining
# Source text: Binding assay. HEK293 cells were transiently transfected (polyethylenimine) with expression vectors encoding TdTomato, Celsr3-Flag or control empty vectors (pCAGEN). […] DAPI was used to counterstain cell nuclei; TdTomato was used to monitor construct transfection. Anti-flag antibody was used to stain Celsr3. Fluorescent images were captured with Zeiss LSM 880 fast airyscan using a 63× oil-immersion objective.
Binder,binding result [1],binding result [2]
B1,"no binding (tested: 200 nM total peptide, monomer equivalent)",–
B2,–,"no binding (tested: 200 nM total peptide, monomer equivalent)"
B3,–,"no binding (tested: 200 nM total peptide, monomer equivalent)"
B4,"no binding (tested: 200 nM total peptide, monomer equivalent)",–
